Measurements: the DeepSol protein solubility set

assay: soluble on expression in E. coli; label from the status in PepcDB or PDB records

| Sequence | soluble on expression in E. coli |
| --- | --- |
| MTWNTCSLCVTSELMNTLDEAKIPLQKAVNYHEQSQNRQFRITLITKCLENQENPEKSEVSVNFFVDLKELVPSCAYFEKFDGLSYVEFSTNCKSTWISAPESVAAPHEDCSHRFQSPIISRNFHAFLDSVCPSLYGIRPTPLTLSSIVPVLDMLSHFHSEPLLTNCERFLMSTNIGHLDGNHLIRLLDKGLCVSLDHRILGRILCICLMSPQAKMSDSSQELAGTIGSVFAQAFVALVYQKLMVKCEENSNLLIEKSKKSIFDGIFMENLKKKLIFHNFYEYSNISKSFRHIKPLEQESSLWPMAMRNLLIPGALGANSSSSKGSSEEKIGNKKRKRQECDHNEESFECILCFDQRCGKCKGEAAFCYKALDNFLYEIRLQLYPHTYRPHLDRDLLREERLSDYILRNQFQPLPDAN | not soluble |
| EVDPAKCVLQGEDLHRAREKQTASFTLLCKDAAGEIMGRGGDNVQVAVVPKDKKDSPVRTMVQDNKDGTYYISYTPKEPGVYTVWVCIKEQHVQGSPFTVTVRRKH | soluble |
| VDRYNDQASGRALIEIRLCNERATPMPIPIGLWMFQTKLHVNAGGADVFLPVCDVLEQDLAERDEEVRQLNLQYRNRLEYAIGRTCSAAWSVNGSRRPSAVWTTWLPVAETPHTRARSVENALLSMDSRGGVT | not soluble |
| MQFTDGGKEVELRLRLKTGEILSPKDISVDADGTSLAVKEKRNGLLITLLETNHLFEKIMPSETIWYIDEDQLVVNMKKVDGELKWPDIVESWESLTAGMMQLLKGASIYIVGDSTEINQKVSRELAVGLGYSPLDSKELLESFSKQTIDSWILAEGPDSVAEAESSVLESLSSHVRTVVSTLGGKHGAAGRADQWRHLYSGFTVWVSQTEATDEESAKEEARRSKQEREIGYSNADVVVKLQGWDPTHAKSVAQASLSALKQLIISDKGLPGNK | not soluble |
| MTLRYEIFPVTPFRQNCTLIWDDESGEAVLTDVGGDVPFLLQALANRKLTLTAIWLTHGHLDHAGGVVEMLKTHKVPVLGPHPDDEFLLQSLPQTTAQYGFPVSPAFAPNRWLEEGETLTVGRYAFQVLHIPGHTPGHIVFYCAEAELLIAGDVLFYETIGRTDFPRGNHADLINNIRNKLFTLPETVQVVAGHGRMTSIGHEKRHNPFF | not soluble |
| SRMQRDLSDSTVLRNLGVAFSYSLIAYHSVAKGNDKLQINKSALQKDLSENWEVLAEAIQTVMRRYNEPNAYEQLKELTRGQMIDAENLKKFIKTLSIPEEAKAELMKLTPETYTGLATQLVKAFS | not soluble |
| MITVPHSRKVELDEIDRAILRLLQEDGRMSYSEISRRINVPESTVRARVNRLVKEGVIRKFAALINPFKAGYEIVAFIAVDAEPAKVKQVVEELAKFPEVDVLGIVTGAHDIFMQVTVKDLQELERFILEKMAKIDGIKSTETSILTSVKKWGYARVF | soluble |
| MSLDWTCKHHADLTLKELYALLQLRTEVFVVEQKCPYQEVDGLDLVGDTHHLMAWRDGQLLAYLRLLDPVRHEGQVVIGRVVSSSAARGQGLGHQLMERALQAAERLWLDTPVYLSAQAHLQAYYGRYGFVAVTEVYLEDDIPHIGMRRA | soluble |
| MGSDKIHHHHHHMTDDQIHQTDWLQRGRDVLDIEAEGIRAVRDRLGPSFESALALLAGCRGRVVVTGLGKSGLVGRKLAATFSSTGSPAFFLHPVEGAHGDMGSLKADDVVIAISNSGETDELNAILPSLRAIGTPIIALTGRADSSLGRGADIVLDCGVPREACPLGLAPTASTTAVLALGDALAVCLIDWKSFTENDFLRYHPGGSLGQRLRLRVAELMHTEGIPVVNEEAVCEEAVLALDKGGFGAVALTDGGGRLTGILTDGDVRRAVLRGTYGPRVGVTHIMTRNPRFARQTQSVAELIDIMEQKAITVLPITDDDHRLVGLVHLHDLLGKGGVTFAG | not soluble |
| MSFVSVLSIAHKKGRGWPLLDMEIRELCCMLHKVFYLVRCTGIGFDFFRKFVLILFLAYTFKTIDSMASERKLKKQITGAISEVFTDAFLLKLFVKEEKNAEVETILNRILQLQDTTIAKIRCNDGKHNPALVKKYYRRLVDDFKEELSEIVKSISACASDN | not soluble |
| MPPPTNQFKHDNIPLQTQGCEINVLCVRNPRARRIKLSVDERGVRLILPPCADLDAGTRFLLEQRAWIETQMARYASGTAATIPLRRGETTALPLRDQQLPLHWHESRYTRLELDAHGLQFYITTHTNDNTLRHTLREFYEVQARVDISDWLRKYLPGLPRPPTRVRLKPMSSQWGSLATAGHMALDLALVLGRPSAFEYVVVHELCHLIQANHSPAFWREVECRFPLWREERDYFHLKGRILKAQLRRLLQTELEHHHHHH | not soluble |
| MGSDKIHHHHHHMRSTDRLLFIDFLLKFENKNGTVIPCCVDNFDCTFTHKGGKSMYEKERKELYNAHLLLEKYGLVAYTSGNVSVRIGDHVLIKPSGVPYTELKPEDFVVVDLEGNVIEGEKKPSVDTATHLYLYKHLDWAKSVIHTHSTFAMVWAILEKSIPVLCTAHADVFGEEIPLTEYAPVGSEAIGKAVVKVIGKSGAVLLRKHGVMIVGTSVDDAVKKAIFLEEVAKAAYFATLAGKPTPLPPDEVDHLYNQYHTKYGQK | not soluble |
| MGSDKIHHHHHHMEVKPFRPLIYRKEIDGMIAPPFDAITPKEEVELKRNKYNITYLTLPKGRDGIPHAKMLLQSWLENGVLIPMKEDVFIVLRQRFYVGDECINRYGLIAKVKVFPESGDVIPHERTFDMYVKERETLMDGISSQLEPIFLVTLKNDLPGYLKAITDGLKEDNTYFGPENVENFVYYINDKRKINKIISLLAEDKSIVADGHHRLQATKNIAARKSGGEREFWSYAMAYITSIHDPGVLVGGVNRVVSNKFRLDMNVLSKYFEINQVERLDETNINLFNGRLYSLKIRIPVYDNLIDASNDFILSKSASMNYTDIENEVIYTHDIYELMSLVNSGSYSFGIILPRWDKMKLIETLLSGRKLPQKSTYFYPKIPSGLAIDTALELRLS | not soluble |
| MSLSFTGLEGTRVLVADDNFTSRAILKEVLESLRFDVTLAESGEEAVDLVQKTAEPFKVVLLDWRMPGLDGLACARHIRQLDLPVRPTILIITAYGREEVLGEIPSEIIDGVLLKPVARSLLLNTILDALPEYSSRPEQESRIIQIDTAQLRQELADTSVLVVEDNKINRQIAKELLEGVGVRVTLAGDGLEALALVENYDFDLIFMDIQMPRMDGLEACRRIRQLQHKKQPPVVAMTAHALAGDRETSLRAGMNDHITKPIDPDELYAALANWIKRNHAEGHHHHHH | soluble |
| GPGSMFFLTRFKLGMADVTAAIGSGKCGEVLRKLNEKKAVREREENIDYRRALCFLANSQDVFHARQALLEELRHFPNNTAARTLLLEVNETVRPLLMPPKELLKSEPLFGLLCDALLDHTMLTWTRLYSLYRLSKEVCSKEGEGGALMECGVSGGGSVVLLAVVAAHYSKKPRKIYALDTFSGMPEPTTHDNLEEDGNLKPAESTSWGSGTCSATVENVRQLAKNFDVEEGLVVIPGLFHETMPKTLREISDEGISMLHVDADWYESTRCALELAWPMVKQGGMVQVDDYHYWLGCRKAVDEFAQREESEHRPLPILQNVDGNAVYFTKP | not soluble |
| MGSDKIHHHHHHMQFSPEQDNALKAVSAWLKEGRSPLFRLFGYAGTGKTTLARYFAETVDGSVQFTAFTGKAAQVLRSKGASNACTIHSLIYCPRGEEEVSDEVTGKKSIAPTFALNRRSAAAQAKLIIVDECSMVDEQLARDLMSFRTPILVLGDPGQLPPISGGGFFSNGVPDFLLSEIHRQARDNPIVRLAMDVREGRDIPYGNYGAARVVTRKEVHQQLVLDADQLLVGINRTRYLYNKRLRVLKGFTAAYPQAGDKLVCLRNDPAKGLLNGSLWKVMTSQKETVKPGVNLLVKPEESERGVVKIKLLKALFENPDSDISWQLKKRYDDFDYGYALTVHKAQGSQWNNVVLFDESFAFRDMSARWLYTGITRAAERLTIVR | not soluble |
| MGSDKIHHHHHHMKRENLHQPFEICFSELDESQLKEHDHTFFELVYILSGTGIQWINNNKFPYHDGHLFMITPGDIHSFDIHTTTKFVYIKFNDIYIHSAVFGAENIQRLEFILQHANHRPGCILRNQTDKLLVKPMIEAIIREYVNRNIYSSEIITQLINTIVIVVARNIAMFLPEQIDENSEEKSLNILQYIQSNICYPEKIKAKAISQHFGISPNYLGRYFKKQTNETMQQYILNYKMKMVESRLLHSEMRISEIVEELGFTDESHLNRLFKKYKDCNPTDFRKKHRGQ | not soluble |
| MKAIVTLNTTGAQLSVPASSRNLLETLEYHQVPVEYQCRSGYCGSCRMRLLKGEVCYLQQPLAFIQAGEILPCCCQPKGNIEIEF | not soluble |
